Paper PMC7064531 (2020)
One block for each binder: values may come before it. Where no end group is shown, it is not given here. [ ]: non-standard residue; d: D form. pY = N[C@@H](Cc1ccc(OP(=O)(O)O)cc1)C(=O)O

Experiments:
[1] = target: T1, E6AP AZUL (amino-terminal zinc-binding domain of ubiquitin E3a ligase), amino acids 24 to 87 (human, UniProt Q05086 24-87); test: ITC; Y326 phosphorylated
T1 chain: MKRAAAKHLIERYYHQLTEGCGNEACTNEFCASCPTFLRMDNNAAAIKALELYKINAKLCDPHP

[2] = target: T1, E6AP AZUL (amino-terminal zinc-binding …); test: ITC; Y326 phosphorylated
[3] = target: T1, E6AP AZUL (amino-terminal zinc-binding …); test: ITC
[4] = target: T1, E6AP AZUL (amino-terminal zinc-binding …); test: ITC
[5] = target: T1, E6AP AZUL (amino-terminal zinc-binding …); test: SPR

Kd [1]: 189 nM
Kd [2]: 189 nM
Binder: EEDD[pY]DVMQDPEFLQSVLENLPGVDPNNEAIRNAMGSLASQATKD (not fully specified) [hRpn10^322–366 peptide with Y326 phosphorylated]

Kd [3]: 18.2 nM
Kd [4]: 18.2 nM
Binder: EEDDYDVMQDPEFLQSVLENLPGVDPNNEAIRNAMGSLASQATKD [hRpn10^322–366 peptide]

koff [5]: 0.0211 s⁻¹
B1: GST-hRpn10^305–377 (domain or fragment)
chain: SADIDASSAMDTSEPAKEEDDYDVMQDPEFLQSVLENLPGVDPNNEAIRNAMGSLASQATKDGKKDKKEEDKK
